Laboratory results from patent US20220315654A1 (NOVIMMUNE, published 2022).

T1: recombinant human PD-L2 soluble protein (biotinylated) (human, UniProt Q9BQ51 20-220, limits assumed, biotinylated)
T1 construct: Bought soluble protein
T1 sequence (looked up): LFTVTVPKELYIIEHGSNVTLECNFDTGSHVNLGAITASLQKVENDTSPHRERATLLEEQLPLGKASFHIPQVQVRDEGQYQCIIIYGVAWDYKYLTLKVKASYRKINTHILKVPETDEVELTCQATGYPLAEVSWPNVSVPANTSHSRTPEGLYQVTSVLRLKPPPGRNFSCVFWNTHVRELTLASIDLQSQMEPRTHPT

B1: S100 anti-PD-L1 mAb (antibody, human IgG1, lambda, V domains shown)
VH: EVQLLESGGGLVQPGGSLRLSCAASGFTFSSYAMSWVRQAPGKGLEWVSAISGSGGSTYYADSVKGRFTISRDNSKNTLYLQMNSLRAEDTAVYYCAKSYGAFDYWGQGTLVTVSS
VL: QSVLTQPPSASGTPGQRVTISCSGSSSNIENKPVNWYQQLPGTAPKLLIYHDTTRPSGVPDRFSGSKSGTSASLAISGLQSEDEADYYCAAWDFATWPATEVFGGGTKLTVLG
notes: Bivalent monospecific anti-PD-L1 antibody; also called anti-PD-L1 mAb 5100
B2: K2×S93 CD47×PD-L1 bispecific antibody (bispecific antibody, human IgG1, kappa, lambda)
heavy: not shown
light 1: not shown
light 2: QSVLTQPPSASGTPGQRVTISCVSTSDHIAHKPVNWYQQLPGTAPKLLIYHDTSRPDGVPDRFSGSKSGTSASLAISGLQSEDEADYYCAAWDFATWPATEVFGGGTKLTVLGQPKAAPSVTLFPPSSEELQANKATLVCLISDFYPGAVTVAWKADSSPVKAGVETTTPSKQSNNKYAASSYLSLTPEQWKSHRSYSCQVTHEGSTVEKTVAPTECS
notes: also called K2xS93; K2×S93 bsAb
B3: K2×S94 CD47×PD-L1 bispecific antibody (bispecific antibody, human IgG1, kappa, lambda)
heavy: not shown
light 1: not shown
light 2: QSVLTQPPSASGTPGQRVTISCISGSVDIAHKPVNWYQQLPGTAPKLLIYHDTSTPDGVPDRFSGSKSGTSASLAISGLQSEDEADYYCAAWDFATWPATEVFGGGTKLTVLGQPKAAPSVTLFPPSSEELQANKATLVCLISDFYPGAVTVAWKADSSPVKAGVETTTPSKQSNNKYAASSYLSLTPEQWKSHRSYSCQVTHEGSTVEKTVAPTECS
notes: also called K2xS94; S94 bsAb
B4: K2×S96 CD47×PD-L1 bispecific antibody (bispecific antibody, human IgG1, kappa, lambda)
heavy: not shown
light 1: not shown
light 2: QSVLTQPPSASGTPGQRVTISCNLPSADIAHKPVNWYQQLPGTAPKLLIYHDTSVVTGVPDRFSGSKSGTSASLAISGLQSEDEADYYCAAWDFATWPATEVFGGGTKLTVLGQPKAAPSVTLFPPSSEELQANKATLVCLISDFYPGAVTVAWKADSSPVKAGVETTTPSKQSNNKYAASSYLSLTPEQWKSHRSYSCQVTHEGSTVEKTVAPTECS
notes: also called K2xS96; K2×S96 bsAb
B5: S79 anti-PD-L1 mAb (antibody, human IgG1, lambda, V domains shown)
VH: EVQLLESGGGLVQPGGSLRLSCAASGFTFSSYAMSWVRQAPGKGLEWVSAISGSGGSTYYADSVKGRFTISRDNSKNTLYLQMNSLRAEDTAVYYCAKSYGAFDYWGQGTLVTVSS
VL: QSALTQPASVSGSPGQSITISCTGTSSDVFRPPLVSWYQQHPGKAPKLMIYFASLRPSGVSNRFSGSKSGNTASLTISGLQAEDEADYYCSSWDHTGDGHVFGGGTKLTVLG
notes: Bivalent monospecific IgG1 anti-PD-L1 antibody; also called S79_Sc3_1G7_VLCL2 aPDL1 IGLV2-23; anti-PD-L1 mAb S79
B6: K2×S15 CD47×PD-L1 bispecific antibody (bispecific antibody, human IgG1, kappa, lambda)
heavy: not shown
light 1: not shown
light 2: QSALTQPASVSGSPGQSITISCTGTSSDVVKNNFVSWYQQHPGKAPKLMIYFGSVRPSGVSNRFSGSKSGNTASLTISGLQAEDEADYYCSSWDEPDRPFGGGTKLTVLGQPKAAPSVTLFPPSSEELQANKATLVCLISDFYPGAVTVAWKADSSPVKAGVETTTPSKQSNNKYAASSYLSLTPEQWKSHRSYSCQVTHEGSTVEKTVAPTECS
notes: also called K2xS15; K2×S15 bsAb
B7: K2×S58 CD47×PD-L1 bispecific antibody (bispecific antibody, human IgG1, kappa, lambda)
heavy: not shown
light 1: not shown
light 2: QSALTQPASVSGSPGQSITISCNSPSSDVVKNNFVSWYQQHPGKAPKLMIYFGSVTGPGVSNRFSGSKSGNTASLTISGLQAEDEADYYCSSWDEPDRPFGGGTKLTVLGQPKAAPSVTLFPPSSEELQANKATLVCLISDFYPGAVTVAWKADSSPVKAGVETTTPSKQSNNKYAASSYLSLTPEQWKSHRSYSCQVTHEGSTVEKTVAPTECS
notes: also called K2xS58; K2×S58 bsAb
B8: S46 bsAb (bispecific antibody, human IgG1, kappa, lambda)
common heavy chain: not shown
kappa light chain (anti-CD47 K2): not shown
lambda light chain (anti-PD-L1 S46): QSALTQPASVSGSPGQSITISCTGTSSDVLRPPLVSWYQQHPGKAPKLMIYFASLRPSGVSNRFSGSKSGNTASLTISGLQAEDEADYYCSSWDNAGDGHVFGGGTKLTVLGQPKAAPSVTLFPPSSEELQANKATLVCLISDFYPGAVTVAWKADSSPVKAGVETTTPSKQSNNKYAASSYLSLTPEQWKSHRSYSCQVTHEGSTVEKTVAPTECS
notes: also called K2xS46 CD47xPD-L1 bispecific antibody; K2xS46
B9: K2×S23 CD47×PD-L1 bispecific antibody (bispecific antibody, human IgG1, kappa, lambda)
heavy: not shown
light 1: not shown
light 2: QSALTQPASVSGSPGQSITISCTGTSSDVAKIPLVSWYQQHPGKAPKLMIYFASLRPSGVSNRFSGSKSGNTASLTISGLQAEDEADYYCSSWDNAGDGHVFGGGTKLTVLGQPKAAPSVTLFPPSSEELQANKATLVCLISDFYPGAVTVAWKADSSPVKAGVETTTPSKQSNNKYAASSYLSLTPEQWKSHRSYSCQVTHEGSTVEKTVAPTECS
notes: also called K2xS23; K2×S23 bsAb
B10: K2×S79 CD47×PD-L1 bispecific antibody (bispecific antibody, human IgG1, kappa, lambda)
heavy: not shown
light 1: not shown
light 2: QSALTQPASVSGSPGQSITISCTGTSSDVFRPPLVSWYQQHPGKAPKLMIYFASLRPSGVSNRFSGSKSGNTASLTISGLQAEDEADYYCSSWDHTGDGHVFGGGTKLTVLGQPKAAPSVTLFPPSSEELQANKATLVCLISDFYPGAVTVAWKADSSPVKAGVETTTPSKQSNNKYAASSYLSLTPEQWKSHRSYSCQVTHEGSTVEKTVAPTECS
notes: also called K2xS79; S79 bsAb

What was measured:
[1] = biological target: T2, human PD-L1 on cells (human PD-L1-transfected CHO cells; IFNg-induced HT-1080 tumor cells) (human, UniProt Q9NZQ7 19-290); assay: inhibition of human PD-1-moFc binding to IFNg-induced PD-L1+CD47+ HT-1080 cells, CellInsight CX5
T2 construct: whole, on cells; CHO transfectants are negative for human CD47; HT-1080 cells also carry CD47; also called hPD-L1-transfected CHO cells; PD-L1+CD47+ HT-1080

[2] = biological target: T1, recombinant human PD-L2 soluble protein …; assay: sandwich ELISA: antibody captured on coated anti-Fc, biotinylated recombinant human PD-L2 titrated, streptavidin-HRP/Amplex red fluorescence
[3] = biological target: T3, recombinant mouse PD-L1 soluble protein (biotinylated) (mouse, UniProt Q9EP73 19-239, limits assumed, biotinylated); assay: sandwich ELISA: antibody captured on coated anti-human Fc, biotinylated recombinant mouse PD-L1 titrated, streptavidin-HRP/Amplex red fluorescence
T3 construct: Two sources are named for the two assays

[4] = biological target: T4, recombinant human PD-L1 soluble protein (biotinylated) (human, UniProt Q9NZQ7 19-238, biotinylated); assay: sandwich ELISA: antibody captured on coated anti-human Fc, biotinylated recombinant human PD-L1 titrated (x axis, nM), streptavidin-HRP/Amplex red fluorescence
T4 construct: Bought soluble protein; also called hPD-L1

[5] = biological target: T5, recombinant cynomolgus monkey PD-L1 soluble protein (biotinylated) (cynomolgus monkey, UniProt G7PSE7 19-238, biotinylated (site not stated); vendor tag not carried in the letters); assay: sandwich ELISA: antibody captured on coated anti-human Fc, biotinylated recombinant cynomolgus PD-L1 titrated (x axis, nM), streptavidin-HRP/Amplex red fluorescence
T5 construct: Two suppliers are named for the two assays; also called Cyno PD-L1; cynomolgus PD-L1; not shown: vendor tag(s) of the recombinant proteins (Sino Biological; Acrobiosystems #PD1-052H4) and the biotin label

[6] = biological target: T4, recombinant human PD-L1 soluble protein …; assay: BLI (OctetRED96), biotinylated PD-L1 on streptavidin biosensors, bsAb in solution, 1:1 global fit, 30 °C
[7] = biological target: T2, human PD-L1 on cells (human …); assay: inhibition of human PD-1-moFc binding to human PD-L1-transfected CHO cells, CellInsight CX5
[8] = biological target: T3, recombinant mouse PD-L1 soluble protein …; assay: sandwich ELISA: antibody captured on coated anti-human Fc, biotinylated recombinant mouse PD-L1 titrated (x axis, nM), streptavidin-HRP/Amplex red fluorescence
[9] = biological target: T6, human CD47 on cells (Raji, Nalm-6, HT-1080 tumor cells, human red blood cells) (human, UniProt Q08722 19-323); assay: flow cytometry on human red blood cells (CD47+, PD-L1-), detection with AF647 anti-human Fc F(ab')2
T6 construct: whole, on cells; Raji, Nalm-6 and red blood cells carry no or very little PD-L1; HT-1080 carries both targets; also called IAP

[10] = biological target: T3, recombinant mouse PD-L1 soluble protein …; assay: BLI (OctetRED96), biotinylated mouse PD-L1 on streptavidin biosensors, bsAb in solution, 1:1 global fit, 30 °C
[11] = biological target: T5, recombinant cynomolgus monkey PD-L1 …; assay: BLI (OctetRED96), biotinylated cynomolgus PD-L1 on streptavidin biosensors, bsAb in solution, 1:1 global fit, 30 °C

T2 sequence (Q9NZQ7 19-290): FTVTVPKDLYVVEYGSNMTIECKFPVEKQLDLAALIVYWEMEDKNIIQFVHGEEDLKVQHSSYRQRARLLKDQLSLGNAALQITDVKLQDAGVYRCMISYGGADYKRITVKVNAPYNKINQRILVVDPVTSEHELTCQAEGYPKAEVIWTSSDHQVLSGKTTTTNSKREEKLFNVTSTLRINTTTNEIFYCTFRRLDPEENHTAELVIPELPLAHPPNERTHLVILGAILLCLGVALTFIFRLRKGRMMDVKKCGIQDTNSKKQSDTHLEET
T3 sequence (Q9EP73 19-239 limits assumed): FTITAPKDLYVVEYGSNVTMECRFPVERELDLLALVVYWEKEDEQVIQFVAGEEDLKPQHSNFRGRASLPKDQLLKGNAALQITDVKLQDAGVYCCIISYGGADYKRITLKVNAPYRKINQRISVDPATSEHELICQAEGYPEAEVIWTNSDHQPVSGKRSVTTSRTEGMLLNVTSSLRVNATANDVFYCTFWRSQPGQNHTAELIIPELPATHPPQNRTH
T5 sequence (G7PSE7 entry or part of it limits assumed): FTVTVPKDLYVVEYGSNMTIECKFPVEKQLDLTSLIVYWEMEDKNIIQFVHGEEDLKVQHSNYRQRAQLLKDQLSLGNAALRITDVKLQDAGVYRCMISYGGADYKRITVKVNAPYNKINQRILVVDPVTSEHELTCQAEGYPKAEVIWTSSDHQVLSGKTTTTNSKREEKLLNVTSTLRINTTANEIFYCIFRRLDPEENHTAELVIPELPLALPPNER
T4 sequence (Q9NZQ7 19-238 limits assumed): as the sequence (G7PSE7 entry or part of it limits assumed) above, with T33A, S34A, N62S, Q68R, R82Q, L173F, A185T, I192T, L215H counted along it

Binder | binding result [2] | EC50 (read off the curve) [4] [nM] | EC50 (read off the curve) [5] [nM] | Kd [6] [nM] | EC50 (read off the curve) [8] [nM] | further results
B1 | no binding (tested: about 40 nM PD-L2 protein) | ~0.07 | ~0.03 | – | – | IC50 [1]: 0.00084 nM; binding result [3]: no binding (tested: about 33 nM PD-L1 protein)
B2 | – | – | – | 0.7 | – | –
B3 | – | ~0.07 | ~0.03 | 0.7 | – | IC50 [7]: 0.05 nM; binding result [3]: no binding (tested: about 33 nM PD-L1 protein)
B4 | – | – | – | 0.8 | – | –
B5 | no binding (tested: about 40 nM PD-L2 protein) | ~0.07 | ~0.03 | – | ~0.03 | IC50 [1]: 0.00252 nM
B6 | – | – | – | 3 | – | –
B7 | – | – | – | 0.83 | – | –
B8 | – | ~0.1 | ~0.6 | – | ~0.07 | –
B9 | no binding (tested: about 40 nM PD-L2 protein) | ~0.1 | – | 0.92 | – | binding result [9]: binds; binding result [8]: binds
B10 | no binding (tested: about 40 nM PD-L2 protein) | ~0.07 | ~0.03 | 0.5 | ~0.03 | IC50 [7]: 0.03 nM; Kd [10]: 0.52 nM; Kd [11]: 1.35 nM
